Our source for the Kd and yeast surface expression values is the FLAb antibody collection (doi:10.7554/elife.23156).

B1: scFv; the commonest letter at each place (parent)
chain 1: EVKLDETGGGLVQPGRPMKLSCVASGFTFSDYWMNWVRQSPEKGLEWVAQIRNKPYNYETYYSDSVKGRFTISRDDSKSSVYLQMNNLRVEDMGIYYCTGSYYGMDYWGQGTSVTVS
chain 2: DVVMTQTPLSLPVSLGDQASISCRSSQSLVHSNGNTYLRWYLQKPGQSPKVLIYKVSNRFSGVPDRFSGSGSGTDFTLKISRVEAEDLGVYFCSQSTHVPWTFGGGTKLEIK

Variants of B1 are the subject of series [1]. The experiment in a line: Kd (Tite-Seq). The following applies: with fluorescein; format: scFv 4-4-20, heavy + light.
Variants of B1 are the subject of series [2]. The experiment in a line: yeast surface expression (ratio to wild type); higher = more expressed. The following applies: format: scFv 4-4-20, heavy + light.

A value given as a limit tells only on which side of the number the result lay.

With chain 1 G104D Y107F, the equilibrium dissociation constant (Kd) in series [1] is at least 10 µM. In addition, the yeast surface expression in series [2] turned out to be 0.945.
The like results for chain 1 G104D Y107D were, in that order, at least 10 µM and 0.716.
In the same order, the values of chain 1 G104D Y107L are at least 10 µM and 1.18.
In the same order, the values of chain 1 G100T S101N G104K are at least 10 µM and 0.565.
Turning to chain 1 G104M M105R, the equilibrium dissociation constant (Kd) in series [1] is at least 10 µM. In addition, the yeast surface expression in series [2] was 0.619.
In the same order, the values of chain 1 G104R D106P Y107A are at least 10 µM and 0.359.
The like results for chain 1 G100V Y103F were, in that order, 0.876 µM and 0.679.
As for chain 1 G104Q Y107G W108I, the Kd in series [1] is at least 10 µM. Moreover, the yeast surface expression in series [2] is 0.271.
In the same order, the values of chain 1 G104T Y107I W108Y are at least 10 µM and 0.224.
Take chain 1 G100T S101D: the Kd in series [1] is at least 10 µM. Moreover, in series [2], the yeast surface expression is 0.83.
The like results for chain 1 G104A D106Q were, in that order, at least 10 µM and 0.575.
The like results for chain 1 G104A D106T were, in that order, at least 10 µM and 0.78.
The like results for chain 1 G104A D106K were, in that order, at least 10 µM and 0.362.
Consider chain 1 G104L Y107C, for which the Kd in series [1] is at least 10 µM. Also, the yeast surface expression in series [2] was found to be 0.133.
In the same order, the values of chain 1 G104L Y107E are at least 10 µM and 0.499.
In the same order, the values of chain 1 G100Y D106S are at least 10 µM and 0.505.
As to chain 1 G100Y D106I, the Kd in series [1] was at least 10 µM. Besides, in series [2], the yeast surface expression turned out to be 0.398.
The like results for chain 1 G104T D106Y were, in that order, at least 10 µM and 0.331.
In the same order, the values of chain 1 G104K Y107N are at least 10 µM and 0.424.
In the same order, the values of chain 1 G100W Y103S are at least 10 µM and 0.463.
With chain 1 G104T D106T Y107L, the Kd in series [1] is at least 10 µM. The yeast surface expression in series [2] turned out to be 0.547.
In the same order, the values of chain 1 G100W S101D G109V are at least 10 µM and 0.286.
The like results for chain 1 G104W G109R were, in that order, at least 10 µM and 0.171.
In the same order, the values of chain 1 G104W G109E are at least 10 µM and 0.167.
Turning to chain 1 G100Y W108L, the Kd in series [1] is at least 10 µM. In addition, in series [2], the yeast surface expression stood at 0.393.
In the same order, the values of chain 1 G100V D106Q are at least 10 µM and 0.639.
For chain 1 G100T D106A, the dissociation constant Kd in series [1] was at least 10 µM. In addition, in series [2], the yeast surface expression came to 0.704.
In the same order, the values of chain 1 G100T D106V are at least 10 µM and 0.468.
In the same order, the values of chain 1 G100V Y107H are at least 10 µM and 0.772.
Consider chain 1 G100V Y107M, for which the Kd in series [1] was at least 10 µM. Moreover, the yeast surface expression in series [2] came to 0.726.
In the same order, the values of chain 1 G100V G104F are at least 10 µM and 0.472.
The like results for chain 1 G100V G104A were, in that order, at least 10 µM and 0.747.
The like results for chain 1 G100V G104D were, in that order, at least 10 µM and 0.777.
As to chain 1 G100T Y102N, the equilibrium dissociation constant (Kd) in series [1] is at least 10 µM. The yeast surface expression in series [2] came to 0.932.
As for chain 1 G104H Y107R, the dissociation constant Kd in series [1] is at least 10 µM. For the same variant, the yeast surface expression in series [2] was found to be 0.518.
In the same order, the values of chain 1 G104H Y107M are at least 10 µM and 0.478.
Regarding chain 1 G100S Y103H, the Kd in series [1] was 0.0245 µM. The yeast surface expression in series [2] came out at 1.01.
As for chain 1 G100S Y103P, in series [1], the dissociation constant Kd is at least 10 µM. In series [2], the yeast surface expression was found to be 0.689.
The like results for chain 1 G100R Y103V W108N were, in that order, at least 10 µM and 0.274.
As for chain 1 G104E D106A, the Kd in series [1] is at least 10 µM. For the same variant, in series [2], the yeast surface expression is 0.657.
In the same order, the values of chain 1 G104K D106H are at least 10 µM and 0.594.
In the same order, the values of chain 1 G104R M105R are at least 10 µM and 0.672.
The like results for chain 1 G104R M105C were, in that order, at least 10 µM and 0.315.
chain 1 G104I W108H: in series [1], the equilibrium dissociation constant (Kd) is at least 10 µM. The yeast surface expression in series [2] was 0.102.
In the same order, the values of chain 1 G104I W108D are at least 10 µM and 0.236.
In the same order, the values of chain 1 G104Q G109M are at least 10 µM and 0.0981.
With chain 1 G104Q G109T, the Kd in series [1] is at least 10 µM. In addition, in series [2], the yeast surface expression came out at 0.272.
The like results for chain 1 G104Q G109Q were, in that order, at least 10 µM and 0.248.
The like results for chain 1 G104H W108R were, in that order, at least 10 µM and 0.272.
Take chain 1 G104K G109C: the dissociation constant Kd in series [1] is at least 10 µM. In addition, in series [2], the yeast surface expression is 0.195.
For the variant chain 1 G104K G109F, in series [1], the Kd is at least 10 µM. Further, the yeast surface expression in series [2] was found to be 0.282.
Take chain 1 G104V Y107K: in series [1], the Kd is at least 10 µM. For the same variant, the yeast surface expression in series [2] was 0.324.
In the same order, the values of chain 1 G104V Y107I are at least 10 µM and 0.443.
The like results for chain 1 G104R G109C were, in that order, at least 10 µM and 0.5.
For chain 1 G100T M105W, in series [1], the Kd was at least 10 µM. Also, the yeast surface expression in series [2] amounted to 0.733.
In the same order, the values of chain 1 G100T M105C are at least 10 µM and 0.754.
In the same order, the values of chain 1 G100T M105T are at least 10 µM and 0.909.
Regarding chain 1 G100T M105G, the Kd in series [1] was at least 10 µM. For the same variant, the yeast surface expression in series [2] stood at 0.878.
